In US20240392002A1 (EXELIXIS, published 2024) one finds koff, kon and Kd data, which are given here for 2 molecules.

Test [1] concerns the target T1, cynomolgus CD3 delta and epsilon heterodimer (cynomolgus, UniProt Q95LI5 22-117; Q95LI8 22-105).
T1 construct: untagged monomer of the antigen in solution
In words: BLI (Octet QK384), monovalent format: B-body captured on Fc biosensor, untagged antigen as analyte. On the procedure:
(§1) More specifically, monovalent binding affinity analysis was performed using the Octet^QK 384 (ForteBio) using Fc biosensors. Unlabeled B-body™ is first bound to the Fc biosensor at a concentration to yield approximately 1 nm response (typically 10 to 50 nM protein). The biosensors are then equilibrated in 10× Kinetic Buffer (ForteBio) to establish a baseline. The untagged monomer of each antigen is contacted with the antibody-coated sensors at concentrations ranging from 50 nm to 0.75 nM. The association response and dissociation were monitored and recorded. The resulting Kₒₙ and Koff was fit using the Octet analysis software.
(Biolayer interferometry detects binding as a change in optical thickness at a sensor tip.)

Test [2] addresses T2, extracellular domain of human ROR1 (human, UniProt Q01973 30-406).
T2 construct: bought protein; biotinylated in the bivalent assay format; also called Acro Cat. No. RO1-H522y
In words: BLI, monovalent format, B-body on Fc biosensor, soluble antigen. On the procedure: as §1
(§2) Monovalent binding analysis was performed as described above and the antibody was captured with an Fc sensor and contacted with the indicated antigen for the association phase followed by a dissociation phase in buffer only.

Test [3] has as its target T2, extracellular domain of human ROR1. The test can be described thus: BLI (Octet QK384), monovalent format: B-body captured on Fc biosensor, untagged antigen as analyte. The procedure: as §1, §2
For test [4] the target is unchanged. The test can be described thus: BLI (Octet QK384), bivalent format: biotinylated antigen on streptavidin biosensor, 1x2 B-body as analyte. The procedure: (§3) Bivalent binding analysis was performed using the Octet^QK 384 (ForteBio) using streptavidin biosensors. Biotinylated antigen was first bound to the streptavidin biosensor at a concentration to yield approximately 1 nm response (typically 10 to 50 nM biotinylated protein). The biosensors were then equilibrated in 10× Kinetic Buffer (ForteBio) to establish a baseline. The 1×2 B-body™ was contacted with the antigen-coated sensors at concentrations ranging from 50 nm to 0.75 nM. The association response and dissociation were monitored and recorded. The resulting Kₒₙ and Koff was fit using the Octet analysis software.

Test [5] addresses T1, cynomolgus CD3 delta and epsilon …. In words: BLI, B-body on Fc biosensor, antigen monomer 50 nM to 0.75 nM. On the procedure:
as §1

The target in test [6] is T2, extracellular domain of human ROR1. The test can be described thus: BLI, bivalent format, biotinylated antigen on streptavidin biosensor, B-body 50 nM to 0.75 nM. The procedure:
as §3

Test [7] addresses T3, extracellular domain of human ROR2 (human, UniProt Q01974 34-403).
T3 construct: bought protein; biotinylated in the bivalent assay format; also called Acro Cat. No. RO2-H52E5
In words: BLI (Octet QK384), bivalent format: biotinylated antigen on streptavidin biosensor, 1x2 B-body as analyte. The procedure: as §3
(§4) Next, the binding of the antibody to ROR1 and ROR2 was assessed using the monovalent and bivalent BLI binding assessments as described in Example 24.

Test [8] concerns the target T2, extracellular domain of human ROR1. Described as above. On the procedure: as §3, §4
The source holds these as a separate data set.

Test [9] addresses T3, extracellular domain of human ROR2. The test can be described thus: BLI, monovalent format. On the procedure:
as §1, §4

The target of test [10] is T2, extracellular domain of human ROR1. In words: BLI, monovalent format. The procedure: as §1, §4
The target in test [11] is T3, extracellular domain of human ROR2. In words: BLI (Octet QK384), monovalent format: B-body captured on Fc biosensor, untagged antigen as analyte. The procedure: as §1, §2, §4
Test [12] addresses T2, extracellular domain of human ROR1. The description is as above. The procedure:
as §1, §2, §4
The source holds these as a separate data set.

Test [13] concerns the target T1, cynomolgus CD3 delta and epsilon …. In words: BLI, monovalent format, B-body on Fc biosensor. On the procedure: as §1
Test [14] deals with T3, extracellular domain of human ROR2. The test can be described thus: BLI, bivalent format, biotinylated antigen on streptavidin biosensor. The procedure: as §3, §4
Test [15] concerns the target T2, extracellular domain of human ROR1. The test is described as above. The procedure: as §3, §4

As usually defined, the koff is the first-order rate constant of dissociation. Low values mean slow dissociation, high ones fast dissociation. For orientation: kon means the second-order rate constant of association.

T2 sequence (Q01973 30-406 limits assumed): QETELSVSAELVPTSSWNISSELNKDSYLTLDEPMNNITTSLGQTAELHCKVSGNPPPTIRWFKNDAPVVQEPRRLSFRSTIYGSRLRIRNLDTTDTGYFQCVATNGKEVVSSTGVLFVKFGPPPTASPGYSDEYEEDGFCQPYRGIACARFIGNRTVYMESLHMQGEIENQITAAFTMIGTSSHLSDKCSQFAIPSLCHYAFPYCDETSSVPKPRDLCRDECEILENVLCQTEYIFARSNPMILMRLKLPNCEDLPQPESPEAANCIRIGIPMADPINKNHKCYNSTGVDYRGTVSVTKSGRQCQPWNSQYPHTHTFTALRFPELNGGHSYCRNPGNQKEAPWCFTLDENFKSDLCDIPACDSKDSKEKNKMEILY
T3 sequence (Q01974 34-403 limits assumed): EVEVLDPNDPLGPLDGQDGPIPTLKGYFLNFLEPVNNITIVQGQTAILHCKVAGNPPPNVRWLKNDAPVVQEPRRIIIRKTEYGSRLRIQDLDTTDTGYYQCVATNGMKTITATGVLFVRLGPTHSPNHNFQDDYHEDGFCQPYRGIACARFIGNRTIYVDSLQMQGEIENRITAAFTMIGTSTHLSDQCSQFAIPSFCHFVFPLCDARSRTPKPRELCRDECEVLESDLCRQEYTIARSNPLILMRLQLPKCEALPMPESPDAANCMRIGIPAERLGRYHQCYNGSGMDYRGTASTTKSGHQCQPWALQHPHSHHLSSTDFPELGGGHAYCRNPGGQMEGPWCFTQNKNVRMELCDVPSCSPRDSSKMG
T1 sequence (Q95LI5 22-117, stated change not applied, chain 1 of 2): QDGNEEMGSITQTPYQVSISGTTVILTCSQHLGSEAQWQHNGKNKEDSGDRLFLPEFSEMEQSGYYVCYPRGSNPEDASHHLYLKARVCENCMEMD
T1 sequence (Q95LI8 22-105, stated change not applied, chain 2 of 2): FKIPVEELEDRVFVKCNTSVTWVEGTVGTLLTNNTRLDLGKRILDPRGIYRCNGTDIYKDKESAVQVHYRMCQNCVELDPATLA

B1: I2-A27 1×2 B-body™ bispecific antibody (ROR1xCD3) (bispecific antibody)
chain 1: DIQMTQSPSSLSASVGDRVTITCRASQSVSSAVAWYQQKPGKAPKLLIYSASSLYSGVPSRFSGSRSGTDFTLTISSLQPEDFATYYCQQYYSSPRTFGQGTKVEIKRTPREPQVYTLPPSRDELTKNQVSLKCLVKGFYPSDIAVEWESNGQPENNYKTTPPVLDSDGSFFLYSKLTVDKSRWQQGNVFSCSVMHEALHNHYTQKSLSLSKSCDKTHTCPPCPAPEAAGGPSVFLFPPKPKDTLMISRTPEVTCVVVDVSHEDPEVKFNWYVDGVEVHNAKTKPREEQYNSTYRVVSVLTVLHQDWLNGKEYKCKVSNKALKAPIEKTISKAKGQPREPQVCTLPPSREEMTKNQVSLSCAVKGFYPSDIAVEWESNGQPENNYKTTPPVLDSDGSFFLVSKLTVDKSRWQQGNVFSCSVMHEALHNHYTQKSLSLSPGK
chain 2: EVQLVESGGGLVQPGGSLRLSCAASGFTFKGYYIHWVRQAPGKGLEWVAAIYPYGGSTDYADSVKGRFTISADTSKNTAYLQMNSLRAEDTAVYYCARVYIYGVFDYWGQGTLVTVSSASPREPQVYTDPPSRDELTKNQVSLTCLVKGFYPSDIAVEWESNGQPENNYKTTPPVLDSDGSFFLYSKLTVDKSRWQQGNVFSCSVMHEALHNHYTQKSLSLSGEC
chain 3: not shown
chain 4: EVQLVESGGGLVQPGGSLRLSCAASGFTFNTYAMNWVRQAPGKGLEWVARIRSKYNNYATYYADSVKGRFSISRDDSKNTAYLQMNSLRAEDTAVYYCVRHGNFGNSYVSWFAYWGQGTLVTVSSASTKGPSVFPLAPSSKSTSGGTAALGCLVKDYFPEPVTVSWNSGALTSGVHTFPAVLQSSGLYSLSSVVTVPSSSLGTQTYICNVNHKPSNTKVDKKVEPPKSC
notes: two ROR sites, one SP34-89 CD3 site; chain 5 is the same as chain 2; also called I2A-27 BC1 1×2
For B1, the off-rate (koff) was 0.00032 s⁻¹ in test [1], 0.0026 s⁻¹ in test [3] and 3.5e-05 s⁻¹ in [4]. The kon in test [1] was 110000 M⁻¹ s⁻¹; in test [3], 680000 M⁻¹ s⁻¹; in test [4], 490000 M⁻¹ s⁻¹. Further, the Kd in [2] came out at 3.8 nM; in test [5] it was 3 nM; in test [6] it was 0.71 nM.

B2: I2-A10 D54E Y55Q 1×2 B-body™ (ROR1/ROR2xCD3) (bispecific antibody)
chain 1: DIQMTQSPSSLSASVGDRVTITCRASQSVSSAVAWYQQKPGKAPKLLIYSASSLQSGVPSRFSGSRSGTDFTLTISSLQPEDFATYYCQQYYYYPGTFGQGTKVEIKRTPREPQVYTLPPSRDELTKNQVSLKCLVKGFYPSDIAVEWESNGQPENNYKTTPPVLDSDGSFFLYSKLTVDKSRWQQGNVFSCSVMHEALHNHYTQKSLSLSKSCDKTHTCPPCPAPEAAGGPSVFLFPPKPKDTLMISRTPEVTCVVVDVSHEDPEVKFNWYVDGVEVHNAKTKPREEQYNSTYRVVSVLTVLHQDWLNGKEYKCKVSNKALKAPIEKTISKAKGQPREPQVCTLPPSREEMTKNQVSLSCAVKGFYPSDIAVEWESNGQPENNYKTTPPVLDSDGSFFLVSKLTVDKSRWQQGNVFSCSVMHEALHNHYTQKSLSLSPGK
chain 2: EVQLVESGGGLVQPGGSLRLSCAASGFTFSSYFIHWVRQAPGKGLEWVAGIYPSEGYTSYADSVKGRFTISADTSKNTAYLQMNSLRAEDTAVYYCARYYVSGMDYWGQGTLVTVSSASPREPQVYTDPPSRDELTKNQVSLTCLVKGFYPSDIAVEWESNGQPENNYKTTPPVLDSDGSFFLYSKLTVDKSRWQQGNVFSCSVMHEALHNHYTQKSLSLSGEC
chain 3: not shown
chain 4: EVQLVESGGGLVQPGGSLRLSCAASGFTFNTYAMNWVRQAPGKGLEWVARIRSKYNNYATYYADSVKGRFSISRDDSKNTAYLQMNSLRAEDTAVYYCVRHGNFGNSYVSWFAYWGQGTLVTVSSASTKGPSVFPLAPSSKSTSGGTAALGCLVKDYFPEPVTVSWNSGALTSGVHTFPAVLQSSGLYSLSSVVTVPSSSLGTQTYICNVNHKPSNTKVDKKVEPPKSC
notes: two ROR sites, one SP34-89 CD3 site; chain 5 is the same as chain 2; also called I2A-10 D54E Y55Q BC1 1×2
With B2, the off-rate (koff) in test [1] was 0.00063 s⁻¹; in test [8] it was 1.1e-05 s⁻¹; in test [11], less than 1e-07 s⁻¹; in test [12], 0.00023 s⁻¹. The kon amounted to 180000 M⁻¹ s⁻¹ in test [1]; 1.4e+06 M⁻¹ s⁻¹ in [7]; 510000 M⁻¹ s⁻¹ in test [8]; 140000 M⁻¹ s⁻¹ in [11]; 480000 M⁻¹ s⁻¹ in test [12]. The Kd is 0.0033 nM in test [7]; less than 0.001 nM in [9]; 0.46 nM in test [10]; 3.5 nM in test [13]; 0.003 nM in [14]; 0.021 nM in test [15].
